Experimental data from paper PMC2944808, “Binding between Crossveinless-2 and Chordin Von Willebrand Factor Type C Domains Promotes BMP Signaling by Blocking Chordin Activity” (PLoS ONE, 2010).

T1: Chordin, full-length, mouse (mouse, UniProt Q9Z0E2 27-948)
T1 construct: Chordin, mouse, full-length; source: SF9 cells, purified as described [12]
T1 sequence (looked up): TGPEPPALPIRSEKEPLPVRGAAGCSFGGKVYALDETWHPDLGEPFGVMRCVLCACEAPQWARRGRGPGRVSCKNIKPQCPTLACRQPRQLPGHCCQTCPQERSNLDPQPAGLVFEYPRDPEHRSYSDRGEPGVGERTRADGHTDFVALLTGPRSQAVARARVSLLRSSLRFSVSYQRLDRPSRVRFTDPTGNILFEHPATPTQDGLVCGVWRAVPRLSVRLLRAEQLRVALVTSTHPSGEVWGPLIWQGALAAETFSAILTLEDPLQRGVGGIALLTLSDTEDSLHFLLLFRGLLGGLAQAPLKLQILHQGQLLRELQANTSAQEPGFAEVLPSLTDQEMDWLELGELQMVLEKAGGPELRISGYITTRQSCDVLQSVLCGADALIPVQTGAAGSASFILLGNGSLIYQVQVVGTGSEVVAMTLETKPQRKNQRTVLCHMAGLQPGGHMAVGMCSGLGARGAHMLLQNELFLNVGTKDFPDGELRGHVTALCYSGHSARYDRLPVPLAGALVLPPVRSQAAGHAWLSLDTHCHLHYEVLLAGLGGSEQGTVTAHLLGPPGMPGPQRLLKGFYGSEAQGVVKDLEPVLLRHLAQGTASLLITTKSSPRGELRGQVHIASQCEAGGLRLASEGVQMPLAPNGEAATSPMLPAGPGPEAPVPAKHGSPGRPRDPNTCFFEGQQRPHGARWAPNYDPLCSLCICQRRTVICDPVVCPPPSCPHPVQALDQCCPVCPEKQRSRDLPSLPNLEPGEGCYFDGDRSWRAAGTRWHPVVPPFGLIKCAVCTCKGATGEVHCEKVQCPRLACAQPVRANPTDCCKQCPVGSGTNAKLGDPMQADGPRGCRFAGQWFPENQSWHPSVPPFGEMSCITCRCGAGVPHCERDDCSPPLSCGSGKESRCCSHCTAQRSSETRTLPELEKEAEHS

B1: CV2 ΔClip (domain or fragment)
chain: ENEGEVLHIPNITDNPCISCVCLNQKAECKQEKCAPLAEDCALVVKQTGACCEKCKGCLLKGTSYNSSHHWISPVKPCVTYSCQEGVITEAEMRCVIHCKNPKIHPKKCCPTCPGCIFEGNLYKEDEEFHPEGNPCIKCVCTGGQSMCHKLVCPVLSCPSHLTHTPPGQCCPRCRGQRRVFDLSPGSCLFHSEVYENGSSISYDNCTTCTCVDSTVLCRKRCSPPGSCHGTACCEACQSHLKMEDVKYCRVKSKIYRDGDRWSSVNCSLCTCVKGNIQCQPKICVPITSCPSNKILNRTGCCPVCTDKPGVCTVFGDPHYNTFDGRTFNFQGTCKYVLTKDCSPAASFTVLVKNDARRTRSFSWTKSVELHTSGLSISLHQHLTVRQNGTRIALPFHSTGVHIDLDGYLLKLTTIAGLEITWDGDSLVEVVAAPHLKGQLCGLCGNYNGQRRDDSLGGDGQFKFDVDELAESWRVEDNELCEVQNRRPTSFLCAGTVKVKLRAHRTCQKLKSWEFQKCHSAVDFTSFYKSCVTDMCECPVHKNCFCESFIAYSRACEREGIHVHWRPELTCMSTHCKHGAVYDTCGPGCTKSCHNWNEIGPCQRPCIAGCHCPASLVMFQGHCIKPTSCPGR
B2: CV2-VWC1-4 (domain or fragment)
chain: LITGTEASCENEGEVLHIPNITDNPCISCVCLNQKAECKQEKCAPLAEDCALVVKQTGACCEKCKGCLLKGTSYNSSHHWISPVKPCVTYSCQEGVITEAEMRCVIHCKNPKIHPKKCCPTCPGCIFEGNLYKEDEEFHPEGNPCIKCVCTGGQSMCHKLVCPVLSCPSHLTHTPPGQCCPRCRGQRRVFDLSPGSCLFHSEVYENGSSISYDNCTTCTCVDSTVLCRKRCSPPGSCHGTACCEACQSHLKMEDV

Tests used:
Conditions in all cases: both partners purified
BMP2, human = molecular target: T2, BMP2, human (human, UniProt P12643 283-396); test: SPR; BIAcore 2000; BMP2 immobilised, CV2 proteins perfused; apparent KD from koff/kon; 6 to 9 analyte concentrations, at least three independent experiments
T2 construct: Bone morphogenetic protein 2 (BMP2), human; The discussion speaks of 'the BMP dimer'; also called Bone morphogenetic protein 2; source: E. coli, purified as described [40]
T2 sequence (P12643 283-396): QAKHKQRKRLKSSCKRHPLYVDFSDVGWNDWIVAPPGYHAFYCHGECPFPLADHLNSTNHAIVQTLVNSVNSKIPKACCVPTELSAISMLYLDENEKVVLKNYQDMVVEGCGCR

[1] = molecular target: T3, VWC2 domain of Chordin, mouse (mouse); test: SPR; BIAcore 2000; VWC2 domain of Chordin immobilised, CV2 proteins perfused; apparent KD from koff/kon; 6 to 9 analyte concentrations, at least three independent experiments
T3 construct: Chordin, mouse, von Willebrand factor type C domain 2 (VWC2); also called Chordin VWC2; VWC2 of Chordin; source: SF9 cells, purified as described [12]

[2] = molecular target: T1, Chordin, full-length, mouse; test: SPR; BIAcore 2000; Chordin immobilised, CV2 proteins perfused; apparent KD from koff/kon; 6 to 9 analyte concentrations, at least three independent experiments

| Binder | Kd (BMP2, human) | Kd [1] | Kd [2] |
| --- | --- | --- | --- |
| B1 | 50000 nM | 180 nM | 178 nM |
| B2 | 21 nM | 145 nM | 180 nM |
